The assay has as its target T1, PapD (wild type) (E. coli), P15319.
T1 chain: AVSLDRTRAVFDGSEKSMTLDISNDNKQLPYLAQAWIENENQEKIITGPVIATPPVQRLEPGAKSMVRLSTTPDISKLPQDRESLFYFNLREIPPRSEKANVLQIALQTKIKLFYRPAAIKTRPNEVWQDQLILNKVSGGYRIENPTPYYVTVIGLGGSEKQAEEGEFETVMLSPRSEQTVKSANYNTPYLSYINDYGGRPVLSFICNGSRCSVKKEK

As usually defined, the % Inhibition is the relative decrease from the control value, in per cent. A lower % Inhibition goes with little suppression.

B1: MS (peptide)
peptide: YALAPNAVIPTSLALL
modifications: not checked
Molecule B1 gave a % Inhibition of 1%.

B2: G1′-4′ (peptide)
peptide: LSFP
modifications: not checked
Consider B2, for which the % Inhibition turned out to be 0%.

Values taken from patent publication US7025971.
